Data on ten molecules can be found in patent US20230167164A1 (IMMUNOWAKE, published 2023).

Changes are numbered by the printed parent chain. In names and notes the source's numbering stands.

The chains are these.
T1: mouse PD-1 (mouse, UniProt Q02242 25-167, limits assumed)
T1 construct: also called mPD-1
T1 sequence (looked up): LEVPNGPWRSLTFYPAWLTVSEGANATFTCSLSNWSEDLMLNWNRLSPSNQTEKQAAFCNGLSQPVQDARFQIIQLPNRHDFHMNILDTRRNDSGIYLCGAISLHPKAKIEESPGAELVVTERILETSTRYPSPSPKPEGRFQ

T2: human IL-2 receptor (human, UniProt P01589 22-272; P14784 27-551; P31785 23-369)
T2 sequence (looked up) 1: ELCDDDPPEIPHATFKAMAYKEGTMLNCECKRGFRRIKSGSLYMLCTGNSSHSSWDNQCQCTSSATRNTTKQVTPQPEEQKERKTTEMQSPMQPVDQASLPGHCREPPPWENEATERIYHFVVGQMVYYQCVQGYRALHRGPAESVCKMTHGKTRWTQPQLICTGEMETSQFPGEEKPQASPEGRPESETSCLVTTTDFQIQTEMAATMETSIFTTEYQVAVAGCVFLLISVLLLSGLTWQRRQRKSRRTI
T2 sequence (looked up) 2: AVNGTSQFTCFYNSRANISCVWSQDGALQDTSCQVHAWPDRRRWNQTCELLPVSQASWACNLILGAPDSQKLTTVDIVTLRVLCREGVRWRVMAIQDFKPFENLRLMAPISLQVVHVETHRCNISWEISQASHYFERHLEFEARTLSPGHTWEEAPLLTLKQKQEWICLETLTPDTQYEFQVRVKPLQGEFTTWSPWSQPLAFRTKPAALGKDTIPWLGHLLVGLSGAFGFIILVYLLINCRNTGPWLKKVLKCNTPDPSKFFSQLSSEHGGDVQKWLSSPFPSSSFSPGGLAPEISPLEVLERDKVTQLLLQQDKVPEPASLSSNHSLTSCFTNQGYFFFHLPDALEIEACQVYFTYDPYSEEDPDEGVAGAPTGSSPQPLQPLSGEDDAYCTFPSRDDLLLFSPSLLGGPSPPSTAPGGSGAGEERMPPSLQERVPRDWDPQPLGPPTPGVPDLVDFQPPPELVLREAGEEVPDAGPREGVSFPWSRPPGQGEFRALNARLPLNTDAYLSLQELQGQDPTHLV
T2 sequence (looked up) 3: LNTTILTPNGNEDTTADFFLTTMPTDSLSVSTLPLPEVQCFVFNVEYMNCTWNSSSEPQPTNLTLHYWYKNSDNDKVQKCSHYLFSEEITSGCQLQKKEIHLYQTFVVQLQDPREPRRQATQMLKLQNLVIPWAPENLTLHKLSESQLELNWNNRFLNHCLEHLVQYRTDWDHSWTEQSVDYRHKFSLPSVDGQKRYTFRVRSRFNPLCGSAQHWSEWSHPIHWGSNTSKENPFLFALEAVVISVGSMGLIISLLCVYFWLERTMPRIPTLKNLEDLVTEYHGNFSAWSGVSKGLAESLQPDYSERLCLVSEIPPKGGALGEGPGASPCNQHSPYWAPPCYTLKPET

B1: PD-L1(mut2)-Fc/IL-12(E59A/F60A) (Fc fusion)
chain 1: FTVTVPKDLYVVEYGSNMTIECKFPVEKQLDLAALQVYWMMEDKNIIQFVHGEEDLKVQHSSYRQRARLLKDQLSLGNAALQITDVKLQDAGVYTCLIAYKGADYKRITVKVNAPYNKINQRILVVDPVTSEHELTCQAEGYPKAEVIWTSSDHQVLSGKTTTTNSKREEKLFNVTSTLRINTTTNEIFYCTFRRLDPEENHTAELVIPELPLAHPPNERGGGGSGGGDKTHTCPPCPAPEDEGGPSVFLFPPKPKDTLMISRTPEVTCVVVDVSHEDPEVKFNWYVDGVEVHNAKTKPREEQYNSTYRVVSVLTVLHQDWLNGKEYKCKVSNKALPAPIEKTISKAKGQPREPQVYVYPPSREEMTKNQVSLTCLVKGFYPSDIAVEWESNGQPENNYKTTPPVLDEDGSFALVSKLTVDKSRWQQGNVFSCSVMHEALHNHYTQKSLSLSPGKGGGGSGGGIWELKKDVYVVELDWYPDAPGEMVVLTCDTPEEDGITWTLDQSSEVLGSGKTLTIQVKAAGDAGQYTCHKGGEVLSHSLLLLHKKEDGIWSTDILKDQKEPKNKTFLRCEAKNYSGRFTCWWLTTISTDLTFSVKSSRGSSDPQGVTCGAATLSAERVRGDNKEYEYSVECQEDSACPAAEESLPIEVMVDAVHKLKYENYTSSFFIRDIIKPDPPKNLQLKPLKNSRQVEVSWEYPDTWSTPHSYFSLTFCVQVQGKSKREKKDRVFTDKTSATVICRKNASISVRAQDRYYSSSWSEWASVPCSGGGGSGGGSGGGGSRNLPVATPDPGMFPCLHHSQNLLRAVSNMLQKARQTLEFYPCTSEEIDHEDITKDKTSTVEACLPLELTKNESCLNSRETSFITNGSCLASRKTSFMMALCLSSIYEDLKMYQVEFKTMNAKLLMDPKRQIFLDQNMLAVIDELMQALNFNSETVPQKSSLEEPDFYKTKIKLCILLHAFRIRAVTIDRVMSYLNAS
chain 2: FTVTVPKDLYVVEYGSNMTIECKFPVEKQLDLAALQVYWMMEDKNIIQFVHGEEDLKVQHSSYRQRARLLKDQLSLGNAALQITDVKLQDAGVYTCLIAYKGADYKRITVKVNAPYNKINQRILVVDPVTSEHELTCQAEGYPKAEVIWTSSDHQVLSGKTTTTNSKREEKLFNVTSTLRINTTTNEIFYCTFRRLDPEENHTAELVIPELPLAHPPNERGGGGSGGGDKTHTCPPCPAPEKKGGPSVFLFPPKPKDTLMISRTPEVTCVVVDVSHEDPEVKFNWYVDGVEVHNAKTKPREEQYNSTYRVVSVLTVLHQDWLNGKEYKCKVSNKALPAPIEKTISKAKGQPREPQVYVLPPSREEMTKNQVSLLCLVKGFYPSDIAVEWESNGQPENRYMTWPPVLDSDGSFFLYSKLTVDKSRWQQGNVFSCSVMHEALHNHYTQKSLSLSPGK
B2: PD-L1(mut3)-Fc (Fc fusion)
chain 1: FTVTVPKDLYVVEYGSNMTIECKFPVEKQLDLAALQVYWEMEDKNIIQFVHGEEDLKVQHSSYRQRARLLKDQLSLGNAALQITDVKLQDAGVYTCLIAYKGADYKRITVKVNAPYNKINQRILVVDPVTSEHELTCQAEGYPKAEVIWTSSDHQVLSGKTTTTNSKREEKLFNVTSTLRINTTTNEIFYCTFRRLDPEENHTAELVIPELPLAHPPNERDKTHTCPPCPAPEDEGGPSVFLFPPKPKDTLMISRTPEVTCVVVDVSHEDPEVKFNWYVDGVEVHNAKTKPREEQYNSTYRVVSVLTVLHQDWLNGKEYKCKVSNKALPAPIEKTISKAKGQPREPQVYVYPPSREEMTKNQVSLTCLVKGFYPSDIAVEWESNGQPENNYKTTPPVLDEDGSFALVSKLTVDKSRWQQGNVFSCSVMHEALHNHYTQKSLSLSPGK
chain 2: B2 chain 1 with D234K, E235K, Y351L, T366L, N390R, K392M, T394W, E400S, A405F, V407Y
notes: also called I54Q/R113T/M115L/S117A/G119K
B3: PD-L1(mut6)-Fc (Fc fusion)
chain 1: B2 chain 1 with E40M, A99S
chain 2: FTVTVPKDLYVVEYGSNMTIECKFPVEKQLDLAALQVYWMMEDKNIIQFVHGEEDLKVQHSSYRQRARLLKDQLSLGNAALQITDVKLQDAGVYTCLISYKGADYKRITVKVNAPYNKINQRILVVDPVTSEHELTCQAEGYPKAEVIWTSSDHQVLSGKTTTTNSKREEKLFNVTSTLRINTTTNEIFYCTFRRLDPEENHTAELVIPELPLAHPPNERDKTHTCPPCPAPEKKGGPSVFLFPPKPKDTLMISRTPEVTCVVVDVSHEDPEVKFNWYVDGVEVHNAKTKPREEQYNSTYRVVSVLTVLHQDWLNGKEYKCKVSNKALPAPIEKTISKAKGQPREPQVYVLPPSREEMTKNQVSLLCLVKGFYPSDIAVEWESNGQPENRYMTWPPVLDSDGSFFLYSKLTVDKSRWQQGNVFSCSVMHEALHNHYTQKSLSLSPGK
notes: also called PD-L1(I54Q/E58M/R113T/M115L/G119K)
B4: PD-L1(mut5)-Fc (Fc fusion)
chain 1: B2 chain 1 with E40M, L97M
chain 2: B3 chain 2 with L97M, S99A
notes: also called I54Q/E58M/R113T/S117A/G119K
B5: PD-L1(mut7)-Fc (Fc fusion)
chain 1: B2 chain 1 with E40M, K101G
chain 2: B3 chain 2 with S99A, K101G
notes: also called PD-L1(I54Q/E58M/R113T/M115L/S117A)
B6: PD-L1(mut4)-Fc (Fc fusion)
chain 1: B2 chain 1 with E40M, T95R
chain 2: B3 chain 2 with T95R, S99A
notes: also called I54Q/E58M/M115L/S117A/G119K
B7: PD-L1(mut2)-Fc (Fc fusion)
chain 1: B1 chain 2 with K242D, K243E, L359Y, L374T, R398N, M400K, W402T, S408E, F413A, Y415V
chain 2: B1 chain 2
notes: also called PD-L1(I54Q/E58M/R113T/M115L/S117A/G119K)
B8: IL-2(R38D/K43E/E61R)/PD-L1(mut2)-Fc (Fc fusion)
chain 1: FTVTVPKDLYVVEYGSNMTIECKFPVEKQLDLAALQVYWMMEDKNIIQFVHGEEDLKVQHSSYRQRARLLKDQLSLGNAALQITDVKLQDAGVYTCLIAYKGADYKRITVKVNAPYNKINQRILVVDPVTSEHELTCQAEGYPKAEVIWTSSDHQVLSGKTTTTNSKREEKLFNVTSTLRINTTTNEIFYCTFRRLDPEENHTAELVIPELPLAHPPNERGGGSGAPTSSSTKKTQLQLEHLLLDLQMILNGINNYKNPKLTDMLTFEFYMPKKATELKHLQCLERELKPLEEVLNLAQSKNFHLRPRDLISNINVIVLELKGSETTFMCEYADETATIVEFLNRWITFCQSIISTLTGGGGSGGGDKTHTCPPCPAPEKKGGPSVFLFPPKPKDTLMISRTPEVTCVVVDVSHEDPEVKFNWYVDGVEVHNAKTKPREEQYNSTYRVVSVLTVLHQDWLNGKEYKCKVSNKALPAPIEKTISKAKGQPREPQVYVLPPSREEMTKNQVSLLCLVKGFYPSDIAVEWESNGQPENRYMTWPPVLDSDGSFFLYSKLTVDKSRWQQGNVFSCSVMHEALHNHYTQKSLSLSPGK
chain 2: B1 chain 2 with K242D, K243E, L359Y, L374T, R398N, M400K, W402T, S408E, F413A, Y415V
B9: IL-2(R38D/K43E/E61R/Q126T)/PD-L1(mut2)-Fc (Fc fusion)
chain 1: B8 chain 1 with Q351T
chain 2: B1 chain 2 with K242D, K243E, L359Y, L374T, R398N, M400K, W402T, S408E, F413A, Y415V
B10: IL-2(L18R/Q22E/R38D/K43E/E61R)/PD-L1(mut2)-Fc (Fc fusion)
chain 1: B8 chain 1 with L243R, Q247E
chain 2: B1 chain 2 with K242D, K243E, L359Y, L374T, R398N, M400K, W402T, S408E, F413A, Y415V

T4 sequence (Q15116 25-167 limits assumed): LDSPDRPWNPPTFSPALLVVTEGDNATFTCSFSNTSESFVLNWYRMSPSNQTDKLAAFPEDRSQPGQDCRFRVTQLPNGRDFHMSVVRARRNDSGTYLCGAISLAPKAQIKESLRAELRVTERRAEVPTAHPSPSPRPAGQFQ
T3 sequence (Q15116 25-288): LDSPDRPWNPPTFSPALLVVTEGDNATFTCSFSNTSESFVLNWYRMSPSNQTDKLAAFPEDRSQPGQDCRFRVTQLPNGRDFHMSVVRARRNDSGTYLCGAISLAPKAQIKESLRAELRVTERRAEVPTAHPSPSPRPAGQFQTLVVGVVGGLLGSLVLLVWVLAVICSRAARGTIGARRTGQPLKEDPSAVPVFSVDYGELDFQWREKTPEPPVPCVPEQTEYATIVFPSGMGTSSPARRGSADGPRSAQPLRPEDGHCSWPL
Chain of human IL-12 receptor complex (Q99665 24-862, chain 2 of 2, other chains not shown): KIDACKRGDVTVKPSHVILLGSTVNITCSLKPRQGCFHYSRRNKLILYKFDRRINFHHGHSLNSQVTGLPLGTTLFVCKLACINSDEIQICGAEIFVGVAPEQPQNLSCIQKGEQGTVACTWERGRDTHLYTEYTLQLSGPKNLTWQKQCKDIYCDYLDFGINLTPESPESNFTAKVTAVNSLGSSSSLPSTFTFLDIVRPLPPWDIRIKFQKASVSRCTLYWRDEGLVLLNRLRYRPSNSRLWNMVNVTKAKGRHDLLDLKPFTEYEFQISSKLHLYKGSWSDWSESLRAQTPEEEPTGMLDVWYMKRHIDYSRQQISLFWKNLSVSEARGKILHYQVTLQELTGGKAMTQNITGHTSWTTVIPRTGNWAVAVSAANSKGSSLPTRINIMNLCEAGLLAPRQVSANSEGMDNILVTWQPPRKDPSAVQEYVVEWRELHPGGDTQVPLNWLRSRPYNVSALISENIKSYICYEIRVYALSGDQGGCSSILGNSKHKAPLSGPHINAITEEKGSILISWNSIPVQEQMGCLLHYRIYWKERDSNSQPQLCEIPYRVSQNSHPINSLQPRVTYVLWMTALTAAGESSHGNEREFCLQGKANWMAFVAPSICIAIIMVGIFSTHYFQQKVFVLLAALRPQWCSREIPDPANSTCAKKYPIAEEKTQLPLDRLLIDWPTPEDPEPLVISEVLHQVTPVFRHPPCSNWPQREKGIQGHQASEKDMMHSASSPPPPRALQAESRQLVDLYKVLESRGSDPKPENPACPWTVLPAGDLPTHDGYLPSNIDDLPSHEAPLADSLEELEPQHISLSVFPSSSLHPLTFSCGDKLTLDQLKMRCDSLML

The first experiment has as its target T3, human PD-1 overexpressed on HEK-Blue reporter cells (human, UniProt Q15116 25-288). The experiment in a line: cell-based or functional assay.
B1: the “IL-12 signal transduction, % of rIL-12, HEK-IL-12-PD-1 cells” value came to 25%.

Another experiment has as its target human IL-12 receptor complex (human, UniProt P42701 24-662; Q99665 24-862). The experiment in a line: cell-based or functional assay.
As for B1, the “IL-12 signal transduction, % of rIL-12, HEK-IL-12 cells” value turned out to be 1%.

The next experiment has as its target T4, human PD-1 (human, UniProt Q15116 25-167, limits assumed).
T4 construct: nivolumab is called an anti-human PD-1 antibody; also called hPD-1
The experiment in a line: PD-L1-Fc format, calibrated on PD-L1(wt)-Fc binding affinity.
What is called Kd is the constant that tells how readily two partners part at equilibrium. Consider B2, for which the Kd was 910 nM.

Consider B3, for which the dissociation constant (Kd) was found to be 555 nM.

In turn, B4 gave a Kd of 1200 nM.

Turning to B5, the Kd was found to be 98 nM.

B6 came in with a Kd of 1090 nM.

In turn, B7 showed a Kd of 150 nM.

In another experiment the target is T1, mouse PD-1. The experiment is described as above.
B2 registered a Kd of 820 nM.

The molecule B3 had a dissociation constant (Kd) of 420 nM.

Molecule B4 had a Kd of 1100 nM.

In turn, B5 yielded a Kd of 110 nM.

Molecule B6 displayed a Kd of 980 nM.

B7: the Kd amounted to 120 nM.

A further experiment concerns the target T3, human PD-1 overexpressed on HEK-Blue …. Kind of experiment: cell-based or functional assay. The source holds these as a separate data set.
Consider B8, for which the “IL-2 signal transduction, % of rIL2, HEK-IL-2-PD-1 cells” value is 76%.

For B9, the “IL-2 signal transduction, % of rIL2, HEK-IL-2-PD-1 cells” value was determined as 20%.

As to B10, the “IL-2 signal transduction, % of rIL2, HEK-IL-2-PD-1 cells” value was determined as 35%.

Another experiment deals with T2, human IL-2 receptor. The experiment in a line: cell-based or functional assay.
Consider B8, for which the “IL-2 signal transduction, % of rIL2, HEK-IL-2 cells” value turned out to be 16%.

Turning to B9, the “IL-2 signal transduction, % of rIL2, HEK-IL-2 cells” value was found to be 2%.

B10: the “IL-2 signal transduction, % of rIL2, HEK-IL-2 cells” value came out at 4%.
